Measured values reported in doi:10.1101/712158.

Experiments:
L19-hIL2 (human) = experiment: SEC
L19-mTNF (murine) = experiment: SEC

| stoichiometry N (L19-hIL2 (human)) | stoichiometry N (L19-mTNF (murine)) | Substance |
| --- | --- | --- |
| 2 |  | L19-hIL2 |
|  | 3 | L19-mTNF |
